Consider 2 molecules from patent WO2010082134A1 (dated 2010).

For assay [1], the target named is T1, B. anthracis lethal factor (LF) (Bacillus anthracis, UniProt P15917 34-809).
T1 sequence: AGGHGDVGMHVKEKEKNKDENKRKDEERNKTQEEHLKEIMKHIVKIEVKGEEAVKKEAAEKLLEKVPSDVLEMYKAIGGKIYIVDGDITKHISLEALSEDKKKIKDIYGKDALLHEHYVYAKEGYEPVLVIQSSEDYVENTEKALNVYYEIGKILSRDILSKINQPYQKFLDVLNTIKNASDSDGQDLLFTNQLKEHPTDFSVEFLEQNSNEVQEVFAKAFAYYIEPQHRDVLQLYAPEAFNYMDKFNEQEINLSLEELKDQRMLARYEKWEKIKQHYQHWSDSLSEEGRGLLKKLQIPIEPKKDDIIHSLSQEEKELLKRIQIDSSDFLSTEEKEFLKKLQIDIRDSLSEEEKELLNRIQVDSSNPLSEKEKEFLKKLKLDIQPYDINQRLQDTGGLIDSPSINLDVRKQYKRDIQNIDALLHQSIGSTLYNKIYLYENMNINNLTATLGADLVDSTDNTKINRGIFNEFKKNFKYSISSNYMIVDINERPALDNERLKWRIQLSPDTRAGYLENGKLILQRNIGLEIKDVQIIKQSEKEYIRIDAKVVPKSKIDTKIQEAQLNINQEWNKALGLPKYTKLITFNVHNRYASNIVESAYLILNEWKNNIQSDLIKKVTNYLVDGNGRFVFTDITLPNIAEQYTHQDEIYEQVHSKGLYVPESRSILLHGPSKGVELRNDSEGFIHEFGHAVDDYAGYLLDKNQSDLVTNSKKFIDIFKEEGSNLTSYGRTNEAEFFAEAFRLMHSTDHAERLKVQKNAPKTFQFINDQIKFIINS
Nature of the assay: hybridoma screening by ELISA for anti-LF antibodies. For orientation: An ELISA detects its analyte on a solid surface through an enzyme-linked reagent.

Assay [2] concerns the target B. anthracis protective antigen (PA) (Bacillus anthracis, UniProt P13423 30-764). Nature of the assay: hybridoma screening by ELISA for anti-PA antibodies.

B. anthracis protective antigen (PA), sequence (P13423 30-764 limits assumed): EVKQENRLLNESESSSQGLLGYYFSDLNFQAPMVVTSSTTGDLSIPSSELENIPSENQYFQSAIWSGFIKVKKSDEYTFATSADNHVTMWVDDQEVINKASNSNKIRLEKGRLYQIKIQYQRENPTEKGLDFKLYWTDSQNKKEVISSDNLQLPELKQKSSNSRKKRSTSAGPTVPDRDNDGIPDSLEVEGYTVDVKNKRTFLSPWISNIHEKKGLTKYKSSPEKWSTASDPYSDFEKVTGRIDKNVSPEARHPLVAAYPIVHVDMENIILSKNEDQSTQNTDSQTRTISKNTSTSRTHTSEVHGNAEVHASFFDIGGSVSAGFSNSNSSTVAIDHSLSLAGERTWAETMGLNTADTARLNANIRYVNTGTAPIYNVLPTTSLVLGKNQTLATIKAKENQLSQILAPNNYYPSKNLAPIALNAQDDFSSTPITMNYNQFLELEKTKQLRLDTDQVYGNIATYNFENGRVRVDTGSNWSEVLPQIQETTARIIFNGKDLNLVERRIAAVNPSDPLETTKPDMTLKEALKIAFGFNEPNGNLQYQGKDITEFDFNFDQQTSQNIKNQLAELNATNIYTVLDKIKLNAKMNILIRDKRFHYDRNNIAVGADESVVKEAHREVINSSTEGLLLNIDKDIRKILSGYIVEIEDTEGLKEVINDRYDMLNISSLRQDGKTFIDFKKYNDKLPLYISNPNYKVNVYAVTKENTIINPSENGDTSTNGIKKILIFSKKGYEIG

B1: human monoclonal antibody IQNLF (antibody, V domains shown)
VH: EVQLLESGGGLVQPGGSLRLSCSGSGFMFSSYAMSWVRQAPGKGLEWVSGISGSGGTTNYADSVKGRFTISRDNSKNTLYMQMNSLRAEDTAVYYCAKDGVYGRLGGSDYWGQGTLVTVSS
VL: EIVLTQSPDFQSVSPKEKVTITCRASQSVGSSLHWYQQKPDQSPKLLIKYASQSFSGVPSRFSGSGSGTDFTLTINSLETEDAATYYCHQSSSLPLTFGGGTKVEIKR
Regarding B1, the binding result in assay [1] is given as “binds”.

B2: human monoclonal antibody IQNPA (antibody, V domains shown)
VH: QVQLVQSGAEVKKPGASVKVSCKASGYTFTSNAIQWVRQAPGQRLEWVGWINGGDGNTKYSQKFQGRVTISRDISASTAYMELSSLRSEDTAVYYCARHRLQRGGFDPWGQGTLVTVSS
VL: EIVLTQSPGTLSLSPGERATLSCRASQSVSYSSLAWYQQKPGQAPSLLIYGASSRATGIPDRFSGSGSGPDFTLTISRLEPEDFAVYYCQHYGNSPYTFGQGTKLEIKR
B2: the binding result in assay [2] is “binds”.
